Here are results for one molecule from article PMC9249326, “Analgesic effects of nerve growth factor‐directed monoclonal antibody on diabetic neuralgia in an animal model” (FEBS Open Bio, 2022).

One test deals with T1, NGF-6xHis-biotin (human, UniProt P01138, biotin).
T1 construct: nerve growth factor (NGF), human; source: HEK293, transient transfection (pCAT1.0 vector)
Briefly: ELISA; blocking ELISA: TrkA-Fc (2 ug/mL) coated at 4 °C overnight; threefold dilutions of antibody 1 h at room temperature, then NGF-6xHis-biotin (0.5 ug/mL) 30 min; HRP-streptavidin, TMB. The settings on record: both partners purified. Background: An ELISA detects its analyte on a solid surface through an enzyme-linked reagent.

Test [1] has as its target T2, 6xHis-tagged human NGF (nerve growth factor) (Homo sapiens, UniProt P01138).
T2 construct: nerve growth factor (NGF), human; also called NGF-6xHis; human NGF-6xHis; source: HEK293, transient transfection (pCAT1.0 vector)
Briefly: ELISA; NGF-6xHis (2 ug/mL) coated at 4 °C overnight; antibodies in threefold series from 100 nM, 1 h; detected with HRP goat anti-human IgG (H + L), TMB, OD450. The settings on record: both partners purified.

T2 sequence (P01138 19-241): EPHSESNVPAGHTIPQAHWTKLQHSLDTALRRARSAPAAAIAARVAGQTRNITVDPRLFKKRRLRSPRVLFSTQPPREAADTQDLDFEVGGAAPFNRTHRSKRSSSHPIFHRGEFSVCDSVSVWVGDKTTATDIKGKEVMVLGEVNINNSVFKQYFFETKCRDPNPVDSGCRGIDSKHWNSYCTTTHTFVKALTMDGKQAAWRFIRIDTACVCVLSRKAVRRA
T1 sequence (P01138 122-241): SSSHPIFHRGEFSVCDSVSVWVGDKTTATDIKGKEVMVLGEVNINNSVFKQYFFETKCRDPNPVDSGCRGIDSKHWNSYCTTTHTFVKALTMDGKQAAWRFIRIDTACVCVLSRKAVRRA

B1: tanezumab (antibody, V domains shown)
VH: QVQLQESGPGLVKPSETLSLTCTVSGFSLIGYDLNWIRQPPGKGLEWIGIIWGDGTTDYNSAVKSRVTISKDTSKNQFSLKLSSVTAADTAVYYCARGGYWYATSYYFDYWGQGTLVTVSS
VL: DIQMTQSPSSLSASVGDRVTITCRASQSISNNLNWYQQKPGKAPKLLIYYTSRFHSGVPSRFSGSGSGTDFTFTISSLQPEDIATYYCQQEHTLPYTFGQGTKLEIK
notes: Whole antibody, held on Protein A sensors
For orientation: IC50 means the point on the concentration scale where inhibition reaches its midpoint. Low readings indicate greater potency in that assay, high ones weaker potency in that assay. For orientation: EC50 means the concentration needed to bring the measured effect to its halfway point. The molecule B1 yielded an IC50 in the test with NGF-6xHis-biotin of 1.67 nM. Besides, the EC50 in test [1] was found to be 0.00934 nM.
